1 protein from article PMC4541365, “Alpha-ring Independent Assembly of the 20S Proteasome” (Scientific Reports, 2015) can be followed below.

This data set deals with the molecule itself. In words: native gel or EMSA; ICAR-purified α-his subunits alone (10 or 20 μg) on nondenaturing 4–15% or 5–10% gradient gels, 55 V, 4 °C; self-assembly into single and double α-rings. For orientation: In EMSA bound probe runs differently from free probe, usually more slowly.

B1: Methanococcus maripaludis S2 20S proteasome α subunit, C-terminally hexahistidine-tagged, wild type (natural protein, UniProt Q6M0L9 1-259, looked up)
chain: MQQMVPASGYDRAITIFSPEGRLYQVEYAREAVRRGTTAVGIKCKDGVVLAVDRRITSKLIDVSSIEKIFQIDDHIVAATSGLVADARVLIDRARIEAQMNRVSYGEAITVEALAKKICDIKQAYTQHGGARPFGLALLITGIDRHSARLFETDPSGALIEYKATAIGSGRPIAMEVLESKYDENMTVSEGMELALYALSKTTEELKPENIDMAIIKDSGKLVEKISVDEIEKIVKAVYEKVKAEEEEAEKNKGEEDSE
notes: Proteasome subunit alpha of Methanococcus maripaludis S2, cloned by PCR from genomic DNA; expected Mr of α-his 29.5 kDa; Exists as single rings (SR), double rings (DR) and non-ring species; also called α-his; WT α; source: also Sephacryl S-300 fractions; also in lysate (lysate mixing) or coexpressed with β subunits; not shown: His6, C-terminal, kept
Turning to B1, the binding result is “binds”.
